These are literature values, as cited in article PMC3138048.

This series has as its target Lys199 (UniProt position 223, AKQRLKCASLQ). The series is described as follows: chemical modification.

For “Human serum albumin (HSA) (Homo sapiens)”, the pKa (commonly the negative logarithm of the acid dissociation constant) was 7.9.
